US20040006782A1

Biological target: nicotinic acetylcholine receptor containing the alpha6 subunit (mouse, native in brain of wild type animals) (mouse), Q9R0W9
Sequence (Q9R0W9 31-494, chain 1 of 2): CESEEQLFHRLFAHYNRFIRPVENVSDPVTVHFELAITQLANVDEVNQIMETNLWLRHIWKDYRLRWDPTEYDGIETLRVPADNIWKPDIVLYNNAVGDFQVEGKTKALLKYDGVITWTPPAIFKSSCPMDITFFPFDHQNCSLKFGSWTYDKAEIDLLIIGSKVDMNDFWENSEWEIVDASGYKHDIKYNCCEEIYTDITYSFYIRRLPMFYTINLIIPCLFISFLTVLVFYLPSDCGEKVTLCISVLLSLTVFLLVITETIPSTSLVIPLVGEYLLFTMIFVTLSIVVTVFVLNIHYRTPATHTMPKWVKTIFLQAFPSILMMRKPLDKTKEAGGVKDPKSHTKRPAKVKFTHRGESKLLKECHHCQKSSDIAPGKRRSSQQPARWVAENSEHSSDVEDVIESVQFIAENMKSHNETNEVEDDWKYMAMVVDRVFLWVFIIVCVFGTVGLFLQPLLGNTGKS
Sequence (Q9ERK7 26-501, chain 2 of 2, further chain): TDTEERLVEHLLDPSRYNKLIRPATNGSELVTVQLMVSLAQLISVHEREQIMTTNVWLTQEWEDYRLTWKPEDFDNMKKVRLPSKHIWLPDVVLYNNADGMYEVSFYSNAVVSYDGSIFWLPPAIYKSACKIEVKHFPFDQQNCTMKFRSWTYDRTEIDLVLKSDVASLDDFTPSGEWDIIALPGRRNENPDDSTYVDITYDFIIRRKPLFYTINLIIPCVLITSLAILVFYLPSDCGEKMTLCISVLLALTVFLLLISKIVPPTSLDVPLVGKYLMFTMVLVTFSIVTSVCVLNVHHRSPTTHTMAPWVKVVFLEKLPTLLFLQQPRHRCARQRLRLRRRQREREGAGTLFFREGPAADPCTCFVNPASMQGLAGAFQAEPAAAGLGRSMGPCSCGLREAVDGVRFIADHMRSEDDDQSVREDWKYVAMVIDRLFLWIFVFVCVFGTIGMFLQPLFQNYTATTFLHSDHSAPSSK

B1: α-conotoxin MII, P56636 49-64 (peptide)
peptide: GCCSNPVCHLEHSNLC
modifications: not checked
Work on B1 yielded a share of epibatidine binding sites sensitive to αCtxMII of 20%.
